{"source": "patent US11905559B2", "about": "“Materials and methods for controlling gene expression” (priority 2016, dated 2024)", "molecules": {"B1": {"name": "wt: 69-nucleotide full-length wild-type guanine sensing aptamer RNA sequence from xpt-pbuX operon in B. subtilis (SEQ ID NO: 1) (nucleic acid)", "chain": "CACUCAUAUAAUCGCGUGGAUAUGGCACGCAAGUUUCUACCGGGCACCGUAAAUGUCCGACUAUGGGUG", "modifications": "RNA, backbone and methylation of C not given here"}}, "assay": "Force-ramp mechanical unfolding-refolding of the guanine-aptamer (optical tweezers)", "assay_type": "physicochemical", "settings": "for Unfolding force of the aptamer / Observed nucleotides / Observed ΔXobs: +1 μM guanine, force-ramp; for Observed nucleotides / Observed ΔXobs: complete aptamer (69 nt), 18 pN", "description": "A 69 nucleotide (nt) guanine-sensing aptamer (FIGS. 3 and 4A-B) from xpt-pbuX operon in B. subtilis was used for mechanical unfolding-refolding studies. In the experimental set up shown in FIGS. 2A-E, a single molecule of the guanine-aptamer RNA was clamped between two polystyrene beads through RNA-DNA handles. […] Considering the inter-nucleotide distance as 0.448 nm at 18 pN, then using a serial worm-like chain equation\nThe forces on the bead were recorded at an acquisition rate of 44 kHz. Data was collected from the stereo phone jacks on the ADC boards of the Tweezers instrument and sent to the host computer audio input for analysis by SignalScope program (Faber Acoustical, LLC). As shown in the plot, power spectral density is fitted with the Lorentzian fit to yield the corner frequency (fc) that was used to calculate the trap stiffness. This setup was used to perform three different mechanical reactions: force-ramp (FR), constant-force (CF) and force-jump (FJ) under a controlled force. In the force-ramp (FR) experiment, the trap was moved at 200 nm/s, which corresponded to a loading rate 7-8 pN/s. […] The force-ramp data is plotted as force vs. extension curves (FEC).\nIn the force-ramp experiment, the trap was moved away (pull cycle) from the micropipette at 200 nm/sec, which corresponded to a loading rate of 7-8 pN/sec. This movement of the trap exerted a tension at the ends of the tethered RNA aptamer. […] In the constant-force (CF) experiment, the RNA was held at a preset force (FIG. 6A). The loading rate in CF experiments was zero. The preset force typically fluctuated around the mean with standard deviation ±0.15 pN. The force-ramp and the CF experiments were carried out at an ambient temperature 25±0.5° C. in buffer containing 10 mM Tris-HCl, pH 7.5 at 250 mM NaCl, 3 mM MgCl2 unless mentioned otherwise.", "key": {"[1]": {"settings": "200 nM guanine, sequential unfolding"}}}
{"molecule": "B1", "values": [{"measurement": "Force at which P1 melted", "setting": "[1]", "result": "5-10 pN"}, {"measurement": "Force at which P2, P3 unfolded", "setting": "[1]", "result": "12-15 pN"}, {"measurement": "Unfolding force of the aptamer", "setting": "listed as guanine-aptamer", "result": "18.6±1.1", "unit": "pN"}, {"measurement": "Unfolding force of the aptamer", "setting": "listed as isolated aptamer", "result": "~18.0", "unit": "pN"}, {"measurement": "Observed nucleotides", "result": "67.1 ± 2"}, {"measurement": "Observed ΔXobs", "result": "30.2 ± 1.0", "unit": "nm"}, {"measurement": "Observed nucleotides", "setting": "listed as 69 nt-aptamer", "result": "67±2"}, {"measurement": "Observed ΔXobs", "setting": "listed as guanine-aptamer", "result": "30.2±1", "unit": "nm"}, {"measurement": "Observed ΔXobs", "setting": "listed as isolated aptamer", "result": "~30", "unit": "nm"}]}
